This passage reports normalised SPOT signal, Boehringer light units (BLU); mean over the file's lines of this peptide results from publication PMC314469, “Protein Interaction Networks by Proteome Peptide Scanning” (PLoS Biology, 2004).

For the first assay, the target named is T1, Boi1 SH3 (BOI1_YEAST), P38041.
T1 chain: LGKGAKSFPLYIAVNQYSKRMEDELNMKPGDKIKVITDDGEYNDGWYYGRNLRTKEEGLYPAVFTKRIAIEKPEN
Nature of the assay: SPOT array.
The molecule YSLPMHPGRWWVHT [YHR072W 222-235] had a normalised SPOT signal, Boehringer light units (BLU); mean over the file's lines of this peptide of 79.5.
Molecule YYGPNSPLKLDEEN [YKL108W 203-216] returned a normalised SPOT signal, Boehringer light units (BLU); mean over the file's lines of this peptide of 0.
Still for that read-out and setting: for AARPTRPDKARRLG [YLR029C 39-52] the value was 173; for AGHPMKPHRIRMAH [YNL330C 36-49], 138; for YTNPRAPGKLQDSH [YIL054W 33-46], 153.
Same read-out and setting: for AAQPPLPSRNVASG [YCR088W 446-459] the value was 98.4; for AFVPTNPWRSSMSL [YIL162W 315-328], 294; for AGQPEIPLKSNNKS [YKL104C 225-238], 69.5.
The same measure, in the same setting: to AAWPLDPARERWTR [YGR031W 269-282] belongs 549; to YSNPQTPLRSLAGL [YDR420W 1404-1417], 80.5; to YQYPQTPSKVDISI [YEL040W 243-256], 36.3.
Take ASLPVGPRKNGMNV [YAR061W 26-39]: the normalised SPOT signal, Boehringer light units (BLU); mean over the file's lines of this peptide was 158.
The molecule YRYPQTPMRLEIAV [YLR213C 295-308] yielded a normalised SPOT signal, Boehringer light units (BLU); mean over the file's lines of this peptide of 208.
On the same count and under the same terms, for YPSPAQPPKSPLLN [YER114C 448-461] the value was 92.5.
The same measure, in the same setting: for YTTPKTPPRPKTIL [YKR028W 957-970] the value was 42.6.
For YTLPLLPGKGGFRI [YFR048W 228-241], the normalised SPOT signal, Boehringer light units (BLU); mean over the file's lines of this peptide was 107.
In the case of AGSPIRPYKQRYLL [YGL073W 526-539], the normalised SPOT signal, Boehringer light units (BLU); mean over the file's lines of this peptide amounted to 744.
The same measure, in the same setting: to YRIPDDPRKSQNKS [YKL178C 366-379] belongs 95.9; to YWAPVSPLKSINLF [YLR305C 1424-1437], 104.

Another assay concerns the target T2, Rvs167 SH3 (RV167_YEAST), P39743.
T2 chain: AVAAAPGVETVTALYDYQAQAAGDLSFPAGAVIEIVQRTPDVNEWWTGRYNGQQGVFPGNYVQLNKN
Kind of assay: SPOT array.
The molecule YSLPMHPGRWWVHT [YHR072W 222-235] gave a normalised SPOT signal, Boehringer light units (BLU); mean over the file's lines of this peptide of 78.1.
On the same count and under the same terms, to YYGPNSPLKLDEEN [YKL108W 203-216] belongs 49.9; to AARPTRPDKARRLG [YLR029C 39-52], 109; to AGHPMKPHRIRMAH [YNL330C 36-49], 279.
Still for that read-out and setting: for YTNPRAPGKLQDSH [YIL054W 33-46] the value was 64.7; for AAQPPLPSRNVASG [YCR088W 446-459], 59700; for AFVPTNPWRSSMSL [YIL162W 315-328], 57.
In the case of AGQPEIPLKSNNKS [YKL104C 225-238], the normalised SPOT signal, Boehringer light units (BLU); mean over the file's lines of this peptide turned out to be 0.
Same read-out and setting: for AAWPLDPARERWTR [YGR031W 269-282] the value was 25.5; for YSNPQTPLRSLAGL [YDR420W 1404-1417], 260; for YQYPQTPSKVDISI [YEL040W 243-256], 74.2.
Same read-out and setting: for ASLPVGPRKNGMNV [YAR061W 26-39] the value was 170; for YRYPQTPMRLEIAV [YLR213C 295-308], 90.7; for YPSPAQPPKSPLLN [YER114C 448-461], 18.1.
On the same count and under the same terms, to YTTPKTPPRPKTIL [YKR028W 957-970] belongs 1060; to YTLPLLPGKGGFRI [YFR048W 228-241], 28.3.
In the case of AGSPIRPYKQRYLL [YGL073W 526-539], the normalised SPOT signal, Boehringer light units (BLU); mean over the file's lines of this peptide was 343.
On the same count and under the same terms, to YRIPDDPRKSQNKS [YKL178C 366-379] belongs 21.3; to YWAPVSPLKSINLF [YLR305C 1424-1437], 25.1.

Another assay concerns the target T3, Yhr016c SH3 (YSC84_YEAST), P32793.
T3 chain: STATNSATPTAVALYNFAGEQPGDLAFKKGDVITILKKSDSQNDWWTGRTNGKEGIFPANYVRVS
Nature of the assay: SPOT array.
YSLPMHPGRWWVHT [YHR072W 222-235]: the normalised SPOT signal, Boehringer light units (BLU); mean over the file's lines of this peptide is 308.
Still for that read-out and setting: to YYGPNSPLKLDEEN [YKL108W 203-216] belongs 36; to AARPTRPDKARRLG [YLR029C 39-52], 194.
The same measure, in the same setting: to AGHPMKPHRIRMAH [YNL330C 36-49] belongs 895; to YTNPRAPGKLQDSH [YIL054W 33-46], 238; to AAQPPLPSRNVASG [YCR088W 446-459], 107000.
The molecule AFVPTNPWRSSMSL [YIL162W 315-328] had a normalised SPOT signal, Boehringer light units (BLU); mean over the file's lines of this peptide of 58.7.
In the case of AGQPEIPLKSNNKS [YKL104C 225-238], the normalised SPOT signal, Boehringer light units (BLU); mean over the file's lines of this peptide was 102.
The same measure, in the same setting: to AAWPLDPARERWTR [YGR031W 269-282] belongs 134; to YSNPQTPLRSLAGL [YDR420W 1404-1417], 1600; to YQYPQTPSKVDISI [YEL040W 243-256], 73.9.
The molecule ASLPVGPRKNGMNV [YAR061W 26-39] showed a normalised SPOT signal, Boehringer light units (BLU); mean over the file's lines of this peptide of 167.
On the same count and under the same terms, to YRYPQTPMRLEIAV [YLR213C 295-308] belongs 365; to YPSPAQPPKSPLLN [YER114C 448-461], 22.5.
On the same count and under the same terms, for YTTPKTPPRPKTIL [YKR028W 957-970] the value was 27400.
The same measure, in the same setting: for YTLPLLPGKGGFRI [YFR048W 228-241] the value was 96.3.
The molecule AGSPIRPYKQRYLL [YGL073W 526-539] registered a normalised SPOT signal, Boehringer light units (BLU); mean over the file's lines of this peptide of 180.
In the case of YRIPDDPRKSQNKS [YKL178C 366-379], the normalised SPOT signal, Boehringer light units (BLU); mean over the file's lines of this peptide was 80.5.
Same read-out and setting: to YWAPVSPLKSINLF [YLR305C 1424-1437] belongs 168.

The target of the next assay is T4, Boi2 SH3 (BOI2_YEAST), P39969.
T4 chain: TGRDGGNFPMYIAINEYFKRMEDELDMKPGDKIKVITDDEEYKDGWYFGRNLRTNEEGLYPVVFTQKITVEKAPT
Nature of the assay: SPOT array.
Regarding YSLPMHPGRWWVHT [YHR072W 222-235], the normalised SPOT signal, Boehringer light units (BLU); mean over the file's lines of this peptide is 158.
YYGPNSPLKLDEEN [YKL108W 203-216]: the normalised SPOT signal, Boehringer light units (BLU); mean over the file's lines of this peptide came out at 12.4.
AARPTRPDKARRLG [YLR029C 39-52] returned a normalised SPOT signal, Boehringer light units (BLU); mean over the file's lines of this peptide of 198.
Same read-out and setting: for AGHPMKPHRIRMAH [YNL330C 36-49] the value was 162.
On the same count and under the same terms, for YTNPRAPGKLQDSH [YIL054W 33-46] the value was 26.1; for AAQPPLPSRNVASG [YCR088W 446-459], 62.8; for AFVPTNPWRSSMSL [YIL162W 315-328], 39.8.
Still for that read-out and setting: to AGQPEIPLKSNNKS [YKL104C 225-238] belongs 33.5.
As to AAWPLDPARERWTR [YGR031W 269-282], the normalised SPOT signal, Boehringer light units (BLU); mean over the file's lines of this peptide turned out to be 52.7.
Still for that read-out and setting: to YSNPQTPLRSLAGL [YDR420W 1404-1417] belongs 104; to YQYPQTPSKVDISI [YEL040W 243-256], 36.3.
In turn, ASLPVGPRKNGMNV [YAR061W 26-39] gave a normalised SPOT signal, Boehringer light units (BLU); mean over the file's lines of this peptide of 88.
Same read-out and setting: for YRYPQTPMRLEIAV [YLR213C 295-308] the value was 146; for YPSPAQPPKSPLLN [YER114C 448-461], 36.2.
The same measure, in the same setting: for YTTPKTPPRPKTIL [YKR028W 957-970] the value was 53.6; for YTLPLLPGKGGFRI [YFR048W 228-241], 20.3.
The same measure, in the same setting: for AGSPIRPYKQRYLL [YGL073W 526-539] the value was 352; for YRIPDDPRKSQNKS [YKL178C 366-379], 71.9.
In turn, YWAPVSPLKSINLF [YLR305C 1424-1437] showed a normalised SPOT signal, Boehringer light units (BLU); mean over the file's lines of this peptide of 231.

For the next assay, the target named is T5, Yfr024 SH3 (LSB3_YEAST), P43603.
T5 chain: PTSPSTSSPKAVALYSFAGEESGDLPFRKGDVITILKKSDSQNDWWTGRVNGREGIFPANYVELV
Nature of the assay: SPOT array.
YSLPMHPGRWWVHT [YHR072W 222-235] showed a normalised SPOT signal, Boehringer light units (BLU); mean over the file's lines of this peptide of 712.
As to YYGPNSPLKLDEEN [YKL108W 203-216], the normalised SPOT signal, Boehringer light units (BLU); mean over the file's lines of this peptide is 0.
The same measure, in the same setting: for AARPTRPDKARRLG [YLR029C 39-52] the value was 4960; for AGHPMKPHRIRMAH [YNL330C 36-49], 6490.
Same read-out and setting: to YTNPRAPGKLQDSH [YIL054W 33-46] belongs 478.
The molecule AAQPPLPSRNVASG [YCR088W 446-459] gave a normalised SPOT signal, Boehringer light units (BLU); mean over the file's lines of this peptide of 47300.
Consider AFVPTNPWRSSMSL [YIL162W 315-328], for which the normalised SPOT signal, Boehringer light units (BLU); mean over the file's lines of this peptide turned out to be 840.
Molecule AGQPEIPLKSNNKS [YKL104C 225-238] came in with a normalised SPOT signal, Boehringer light units (BLU); mean over the file's lines of this peptide of 1260.
AAWPLDPARERWTR [YGR031W 269-282] returned a normalised SPOT signal, Boehringer light units (BLU); mean over the file's lines of this peptide of 300.
The molecule YSNPQTPLRSLAGL [YDR420W 1404-1417] registered a normalised SPOT signal, Boehringer light units (BLU); mean over the file's lines of this peptide of 2680.
Still for that read-out and setting: to YQYPQTPSKVDISI [YEL040W 243-256] belongs 141.
Same read-out and setting: to ASLPVGPRKNGMNV [YAR061W 26-39] belongs 619; to YRYPQTPMRLEIAV [YLR213C 295-308], 1060; to YPSPAQPPKSPLLN [YER114C 448-461], 526.
On the same count and under the same terms, for YTTPKTPPRPKTIL [YKR028W 957-970] the value was 28800.
Consider YTLPLLPGKGGFRI [YFR048W 228-241], for which the normalised SPOT signal, Boehringer light units (BLU); mean over the file's lines of this peptide is 474.
The same measure, in the same setting: for AGSPIRPYKQRYLL [YGL073W 526-539] the value was 1770.
On the same count and under the same terms, to YRIPDDPRKSQNKS [YKL178C 366-379] belongs 351.
The same measure, in the same setting: for YWAPVSPLKSINLF [YLR305C 1424-1437] the value was 1590.
